The text below walks through data of IntAct's records for PubMed 19759058.

Assay [1] addresses T1, casp3_mouse Casp3 (UniProt P70677).
T1 sequence: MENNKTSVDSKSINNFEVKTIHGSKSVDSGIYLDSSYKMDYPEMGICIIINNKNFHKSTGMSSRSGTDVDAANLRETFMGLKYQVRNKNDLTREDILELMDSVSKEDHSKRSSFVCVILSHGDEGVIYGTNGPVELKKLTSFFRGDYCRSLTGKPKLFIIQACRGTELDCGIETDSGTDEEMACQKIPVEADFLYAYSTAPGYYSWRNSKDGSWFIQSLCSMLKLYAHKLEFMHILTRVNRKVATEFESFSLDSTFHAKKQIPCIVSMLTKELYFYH

In assay [2] the target is T2, casp7_mouse Casp7 (UniProt P97864).
T2 sequence: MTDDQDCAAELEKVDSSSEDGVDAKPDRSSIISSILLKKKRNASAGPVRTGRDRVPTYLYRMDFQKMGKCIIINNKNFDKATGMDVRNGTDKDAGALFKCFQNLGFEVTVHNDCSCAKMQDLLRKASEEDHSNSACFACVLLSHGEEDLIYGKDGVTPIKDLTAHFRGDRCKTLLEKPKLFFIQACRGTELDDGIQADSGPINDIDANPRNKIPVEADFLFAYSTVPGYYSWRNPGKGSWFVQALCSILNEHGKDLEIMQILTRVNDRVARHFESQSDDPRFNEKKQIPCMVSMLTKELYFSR

Assay [3] deals with T1, casp3_mouse Casp3. This is another data set of the same source.

Turning to “Small ribosomal subunit protein uS13 (Mus musculus) (from UniProt P62270) Q87A”, in assay [1], the “effect of a mutation on the interaction” value is given as “increasing interaction”.
As to “Small ribosomal subunit protein uS13 (Mus musculus) (from UniProt P62270) K88A”, the “effect of a mutation on the interaction” value in assay [2] is “decreasing interaction”; in assay [3] it was “increasing interaction”.
